We go through one molecule from US20240384250A1, “FIBROBLAST GROWTH FACTOR 23 MODULATING COMPOUNDS” (THE UAB RESEARCH FOUNDATION, priority 2021, published 2024).

Experiment in all cases: Pull-down of FLAG-sKL with Fc-tagged FGFR on protein A/G beads, absence of FGF23
Holding throughout (type): binding

The target in one experiment is T1, FGFR2c (Homo sapiens, UniProt P21802).
T1 construct: Fc-coupled FGFR ectodomains were immobilized on protein A/G beads; purchased R&D Systems 712FR050
How it is done:
(§1) To study the interaction between Fc-tagged FGFR isoforms (Fc-FGFR), FGF isoforms, and sKL, immunoprecipitation studies were conducted. Protein A beads (6501, BioVision) and protein G beads (6511, BioVision) were used at 25 μl of a 50% stock slurry per sample in a total bead volume of 50 μl. Beads were washed 5× in activity buffer (50 mM Tris [pH 7.4], 200 mM NaCl, 0.01% Tween 20). Bead spin-down assays were all performed for 2 minutes at 5000 g. Beads were resuspended in 1 ml of activity buffer in a 1.5-ml snap cap tube. One microgram of Fc-FGFR1 to 4 was incubated with the beads for 1 hour on a bead rotator. Control samples were incubated with 2 μg of anti-FGF antibody instead of Fc-FGFR. Beads were then pelleted at 5000 g for 2 minutes and washed 5× with activity buffer. Beads were resuspended and incubated with different combinations of 500 ng of FGF, 1 μg of sKL, 1.6 United States Pharmacopeia (USP) units of heparin, or phosphate-buffered saline (PBS). Beads were incubated for 1 hour on a tube rotator, and beads were pelleted and washed as before. One hundred microliters of 1× Laemmli sample buffer (1610737, Bio-Rad) with 1.42 M 2-mercaptoethanol was added, and samples were boiled for 5 minutes. Samples were analyzed using SDS-PAGE and Western blotting.
(§2) The sample (20 μl) was loaded onto Mini-PROTEAN TGX Precast Gel 4-20% for experiments with <9 samples (4568094, Bio-Rad) or Criterion TGX Precast Gel 4-20% (5678094, Bio-Rad) for experiments with >9 samples. Gels were run in 1× Tris/Glycine/SDS buffer (1610732, Bio-Rad) at 150 V and stopped when the sample dye reached the end of the gel. Gels were removed and electrotransferred via a semi-dry cassette (1703940, Bio-Rad) in I× Tris/Glycine buffer (1610734, Bio-Rad) with 20% methanol. Gels were transferred onto polyvinylidene diflouride membranes (IPVH00010, Millipore) at 20 V for 1 hour. Membranes were then blocked in 5% dried milk with 0.5% Tween 20 diluted in Tris-buffered saline (TBST; pH 7.5) for 1 hour and probed with antibodies against specific antigens at 1:1000 in TBST with 5% dried milk. Blots were washed 3× for 5 minutes in TBST and probed with HRP-coupled secondary antibodies against specific species at 1:10,000 in TBST with 5% dried milk. Membranes were imaged on the SRX-101A X-ray film developer (Konica Minolta).

The target in another experiment is T2, FGFR3c (Homo sapiens, UniProt P22607).
T2 construct: Fc-coupled FGFR ectodomains were immobilized on protein A/G beads; purchased R&D Systems 766FR050
T2 sequence (P22607 23-375 limits assumed): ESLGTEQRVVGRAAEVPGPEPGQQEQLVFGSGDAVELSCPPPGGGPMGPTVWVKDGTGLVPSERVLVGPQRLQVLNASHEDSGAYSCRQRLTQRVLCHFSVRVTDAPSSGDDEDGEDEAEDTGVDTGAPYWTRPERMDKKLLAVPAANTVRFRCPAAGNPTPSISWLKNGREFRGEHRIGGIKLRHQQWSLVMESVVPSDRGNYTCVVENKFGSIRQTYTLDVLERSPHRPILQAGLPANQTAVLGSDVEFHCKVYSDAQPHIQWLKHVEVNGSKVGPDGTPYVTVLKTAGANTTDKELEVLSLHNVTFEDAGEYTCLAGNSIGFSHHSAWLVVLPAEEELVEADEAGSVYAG
How it is done:
as §1, §2

The target in another experiment is T3, FGFR4 (Homo sapiens, UniProt P22455).
T3 construct: Fc-FGFR4 protein (human ectodomain) was immobilized; purchased R&D Systems 685FR050
T3 sequence (P22455 22-369 limits assumed): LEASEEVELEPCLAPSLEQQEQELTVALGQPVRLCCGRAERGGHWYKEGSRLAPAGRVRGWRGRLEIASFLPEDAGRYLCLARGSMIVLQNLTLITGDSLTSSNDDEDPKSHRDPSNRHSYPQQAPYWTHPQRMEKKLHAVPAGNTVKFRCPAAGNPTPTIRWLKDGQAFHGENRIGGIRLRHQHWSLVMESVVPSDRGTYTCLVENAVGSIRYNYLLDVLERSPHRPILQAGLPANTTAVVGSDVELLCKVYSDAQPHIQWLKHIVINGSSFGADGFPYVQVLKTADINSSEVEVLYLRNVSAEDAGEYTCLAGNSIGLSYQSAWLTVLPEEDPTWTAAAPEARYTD
Particulars: listed as FLAG-sKL. The protocol: as §1, §2

A further experiment concerns the target T4, FGFR1c (Homo sapiens, UniProt P11362).
T4 construct: Fc-coupled FGFR ectodomains were immobilized on protein A/G beads; purchased R&D Systems 658FR050
T4 sequence (P11362 22-376 limits assumed): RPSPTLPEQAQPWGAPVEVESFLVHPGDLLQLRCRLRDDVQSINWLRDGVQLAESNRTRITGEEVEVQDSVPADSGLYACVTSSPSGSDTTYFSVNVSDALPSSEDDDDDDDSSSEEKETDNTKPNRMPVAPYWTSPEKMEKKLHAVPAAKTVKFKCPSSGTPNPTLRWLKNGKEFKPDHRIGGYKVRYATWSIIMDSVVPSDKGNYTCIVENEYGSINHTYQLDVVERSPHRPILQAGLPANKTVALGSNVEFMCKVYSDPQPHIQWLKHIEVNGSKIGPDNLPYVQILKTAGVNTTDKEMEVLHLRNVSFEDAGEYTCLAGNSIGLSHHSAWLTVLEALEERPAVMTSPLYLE
The protocol:
as §1, §2

“Also recorded” adds a separate entry of the source.

T1 sequence (P21802 22-377 limits assumed): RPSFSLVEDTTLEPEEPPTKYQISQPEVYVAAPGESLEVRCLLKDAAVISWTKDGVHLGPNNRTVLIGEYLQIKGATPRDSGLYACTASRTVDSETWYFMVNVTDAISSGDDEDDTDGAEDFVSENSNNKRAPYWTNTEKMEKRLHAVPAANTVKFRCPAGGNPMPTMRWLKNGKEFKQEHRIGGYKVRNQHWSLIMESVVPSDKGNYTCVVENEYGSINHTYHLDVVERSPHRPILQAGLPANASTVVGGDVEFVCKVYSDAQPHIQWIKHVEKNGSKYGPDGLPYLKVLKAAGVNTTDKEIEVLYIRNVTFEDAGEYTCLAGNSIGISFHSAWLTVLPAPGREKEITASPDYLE

B1: sKL: recombinant soluble α-klotho ectodomain, mouse aa 35-982 and human aa 34-981, FLAG- or Strep/His-tagged, purified from HEK293 cells (protein)
chain: EPGDGAQTWARFSRPPAPEAAGLFQGTFPDGFLWAVGSAAYQTEGGWQQHGKGASIWDTFTHHPLAPPGDSRNASLPLGAPSPLQPATGDVASDSYNNVFRDTEALRELGVTHYRFSISWARVLPNGSAGVPNREGLRYYRRLLERLRELGVQPVVTLYHWDLPQRLQDAYGGWANRALADHFRDYAELCFRHFGGQVKYWITIDNPYVVAWHGYATGRLAPGIRGSPRLGYLVAHNLLLAHAKVWHLYNTSFRPTQGGQVSIALSSHWINPRRMTDHSIKECQKSLDFVLGWFAKPVFIDGDYPESMKNNLSSILPDFTESEKKFIKGTADFFALCFGPTLSFQLLDPHMKFRQLESPNLRQLLSWIDLEFNHPQIFIVENGWFVSGTTKRDDAKYMYYLKKFIMETLKAIKLDGVDVIGYTAWSLMDGFEWHRGYSIRRGLFYVDFLSQDKMLLPKSSALFYQKLIEKNGFPPLPENQPLEGTFPCDFAWGVVDNYIQVDTTLSQFTDLNVYLWDVHHSKRLIKVDGVVTKKRKSYCVDFAAIQPQIALLQEMHVTHFRFSLDWALILPLGNQSQVNHTILQYYRCMASELVRVNITPVVALWQPMAPNQGLPRLLARQGAWENPYTALAFAEYARLCFQELGHHVKLWITMNEPYTRNMTYSAGHNLLKAHALAWHVYNEKFRHAQNGKISIALQADWIEPACPFSQKDKEVAERVLEFDIGWLAEPIFGSGDYPWVMRDWLNQRNNFLLPYFTEDEKKLIQGTFDFLALSHYTTILVDSEKEDPIKYNDYLEVQEMTDITWLNSPSQVAVVPWGLRKVLNWLKFKYGDLPMYIISNGIDDGLHAEDDQLRVYYMQNYINEALKAHILDGINLCGYFAYSFNDRTAPRFGLYRYAADQFEPKASMKHYRKIIDSNGFPGPETLERFCPEEFTVCTECSFFHTRKS
modifications: left off: small tags and cut ends
notes: recombinant soluble α-klotho ectodomain, mouse aa 35-982 and human aa 34-981, FLAG- or Strep/His-tagged, purified from HEK293 cells
With B1, the “sKL binding to FGFR2c” value with FGFR2c is “no sKL binding”. Further, in the experiment with FGFR3c, the “sKL binding to FGFR3c” value is “no sKL binding”. For the same molecule, the “co-precipitation of FLAG-sKL with FGFR4” value with FGFR4 is “to a lower extent with FGFR4; also recorded: bound to FGFR4 and to a lower extent to FGFR4”. Also, the “co-precipitation of FLAG-sKL with FGFR1c” value with FGFR1c is listed as “could be co-precipitated with FGFR1c”.
